Measured values: patent US20230174623A1

Target: collagen within the matrix fraction of excised B16F10 tumors
Test: depletion of AF647-LAIR fluorescence from solution by the B16F10 tumor matrix fraction, at steady state

| Substance | uptake into the tumor matrix (LAIR binding sites of a tumor) | decrease in solution concentration (LAIR depleted from the bath) |
| --- | --- | --- |
| AF647-labeled LAIR (receptor) | 0.2 nmol | – |
| AF647-labeled LAIR | – | 20% |
